{
  "source": "the supplement of paper PMC9170038",
  "data": [
    {"tested_on": "K4 kissing-loop RNA reporter", "assay": "apparent KD of K4 kissing-loop reporter; higher = weaker reporter binding", "settings": "Eterna round: R107; input ligand: none", "procedure": "(§1)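 RNA-MaP round R107: designed RNA switches with theophylline, tryptophan, arginine or FMN aptamers are transcribed on-chip within common flanks. They are titrated with a labelled K4 kissing-loop RNA reporter in RNA-MaP buffer (100 mM Tris pH 7.5, 80 mM KCl, 4 mM MgCl2), without ligand or with the indicated ligand. Median apparent KD per design.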", "units": {"apparent KD of K4 kissing-loop reporter": "nM"}, "values": [
      {"sequence": "CUGCCGUUUACAGAUACCAGACUAAUAACGGCAGCACAGAAUGUGAGUGAUGUUCGCAUAGUCCCUUGGCAGCUGUAUAACAGUA [Theo B Ex t3]", "apparent KD of K4 kissing-loop reporter": 227},
      {"sequence": "GGCCAAAGAGAGUGAUGUUCUCAAUAUGAAGGAGCGCCCGAAAGGGCAGGUAGGUCGCAUAACGGCCACCUACGAAAAGUAGGAA [#SwitchBubble 4 #K4Early]", "apparent KD of K4 kissing-loop reporter": 94.5},
      {"sequence": "AAGUGUGUGGCGGCCGCCACUAGAAUCCAGUGAUGUUGGAGAUAUCAUGUAAAUGAUAUCCAACAUAGGACCGGGCCAUAUAGAA [Same State - Tryptophan B (Freestyle 10)]", "apparent KD of K4 kissing-loop reporter": 92.4},
      {"sequence": "CAGCAUCUGAGUGGUAGCCAUUGAGAGAUGCAGGAUAUCUGGAAACAGAGAAGGGCAGUGAGUGAUGUUCACGGCUGGCUUGGUU", "apparent KD of K4 kissing-loop reporter": 179},
      {"sequence": "UGAUAGGACAGAAGGAGCGGGAGUGAUGUUCCCAAUAAAAGGUCUAGCAAAGCUAGACCCUCCCAGGUAGGUCGCUGUCCUAUCU [ArgBX 2 #Palindromic #SwitchBubble #StaticStem]", "apparent KD of K4 kissing-loop reporter": 268},
      {"sequence": "UGGGUGUAGUGAUGUUAUAUAGAGAAUGAUACCAGCUUAGAGAGGAGCCCUUGGCAGCGUAGACGAGUAUCAUUGGAGGAGGAGG [#22 K4 Theophylline A Exclusion]", "apparent KD of K4 kissing-loop reporter": 965},
      {"sequence": "AAUACUAUCAGAAGGAGCGUGGAAUAUUCAUCUGUAUCUAAUACGAGUGAUGUUCGUAAUUCACAGGUAGGUCGCUGAUUAAUAC [whbob_Ex_Arginine_B_2th158]", "apparent KD of K4 kissing-loop reporter": 288},
      {"sequence": "CUAUAUAGUGAUGUUAUAUAGAUAACAGAUACCAGCUAGAAAACUAGCCCUUGGCAGCUGAUAAGGGAAAGUAUAAUUGUGUAAA [AstroSTH-A#DifdesignED20.18]", "apparent KD of K4 kissing-loop reporter": 76},
      {"sequence": "UAUAGCGUCAGAAGGAGCGUGAGUAUAACAUGGCUGGAGUGAUGUUCCAGGAGUUAAUACUCACAGGUAGGUCGCUGACUCCUGG [Arg B SS t2]", "apparent KD of K4 kissing-loop reporter": 92.8}
    ]},
    {"tested_on": "K4 kissing-loop RNA reporter", "assay": "apparent KD of K4 kissing-loop reporter; higher = weaker reporter binding", "settings": "Eterna round: R107; input ligand: theophylline 20 uM", "procedure": "as §1", "units": {"apparent KD of K4 kissing-loop reporter": "nM"}, "values": [
      {"sequence": "AAAAUAAUCCAGUGAUGUUGGUAUCCAGAUACCAGCCAGGAAACUGGCCCUUGGCAGCUGGCGACGUACAAAAUAAGUACGUCGU [#OpenEnded 11 #StaticStem #K4Early]", "apparent KD of K4 kissing-loop reporter": 664},
      {"sequence": "AAUCGAGUGAUGUUCGAUGUAGUGCAUUCAGAGGAUAUAGGAUGGGCUAGAAGGCUGAAAAGUGCUUCGAGUGAUGUUCGAAGAU [Exclusion FMN A GF 4]", "apparent KD of K4 kissing-loop reporter": 49.7},
      {"sequence": "AAUAUAAAGUCGGCCGCCACUGGAUUUAUAUUUGUUAAAUCUGGAUCAAAGUGAUGUUUUGAGUCCAGGACCGGGACAAUUGUUA [JR_ExcTryptoB_Sub001]", "apparent KD of K4 kissing-loop reporter": 122},
      {"sequence": "UGAUAAAGCAGUGAUGUUGCAAGUAAUGAUACCAGUUAAGAAGAGAACCCUUGGCAGCAUAAAGUGCGCUCUAAUGAGUGUGCUU [whbob_SS_Theo_A_w51]", "apparent KD of K4 kissing-loop reporter": 169},
      {"sequence": "GUUACGCAUGGAAGGAGCGCAGGCUCAACAAAUAGCUCAGUGAUGUUGAGCAUAUUAAAUCUGCAGGUAGGUCGCCAUGUGUAAC [Ex Arginine B K4 24]", "apparent KD of K4 kissing-loop reporter": 559},
      {"sequence": "GGUGACAGCCAGGAGUGAUGUAUAGAAUAGCGAGGACCGGUACGGCCGCCACUCGUGAAGAGAAAGGAGUGAUGUUCCGUAAUGG [Kazoo C2]", "apparent KD of K4 kissing-loop reporter": 308},
      {"sequence": "UGACAUUGCUCAGAUACCAGACUUGAGGAACACCCAAGUGCCAAAUAAACGUACAUAAAAGUCCCUUGGCAGCUGAGCAAUGUCU [TheoBX 11]", "apparent KD of K4 kissing-loop reporter": 104},
      {"sequence": "GCGGGCCCUGGAGGAUAUGAGUCGAGUGAUGUUCGGCGGUCCAUGCCGAUGCGGCGUUAUGCCCUUUUAGAAGGCCAGGGUCCGC [#2 Exclusion - FMN B Attempt #8 (HarryS)]", "apparent KD of K4 kissing-loop reporter": 302},
      {"sequence": "CUGCCGUUUACAGAUACCAGACUAAUAACGGCAGCACAGAAUGUGAGUGAUGUUCGCAUAGUCCCUUGGCAGCUGUAUAACAGUA [Theo B Ex t3]", "apparent KD of K4 kissing-loop reporter": 287},
      {"sequence": "GGCCAAAGAGAGUGAUGUUCUCAAUAUGAAGGAGCGCCCGAAAGGGCAGGUAGGUCGCAUAACGGCCACCUACGAAAAGUAGGAA [#SwitchBubble 4 #K4Early]", "apparent KD of K4 kissing-loop reporter": 109},
      {"sequence": "AAGUGUGUGGCGGCCGCCACUAGAAUCCAGUGAUGUUGGAGAUAUCAUGUAAAUGAUAUCCAACAUAGGACCGGGCCAUAUAGAA [Same State - Tryptophan B (Freestyle 10)]", "apparent KD of K4 kissing-loop reporter": 131},
      {"sequence": "CAGCAUCUGAGUGGUAGCCAUUGAGAGAUGCAGGAUAUCUGGAAACAGAGAAGGGCAGUGAGUGAUGUUCACGGCUGGCUUGGUU", "apparent KD of K4 kissing-loop reporter": 133},
      {"sequence": "UGAUAGGACAGAAGGAGCGGGAGUGAUGUUCCCAAUAAAAGGUCUAGCAAAGCUAGACCCUCCCAGGUAGGUCGCUGUCCUAUCU [ArgBX 2 #Palindromic #SwitchBubble #StaticStem]", "apparent KD of K4 kissing-loop reporter": 245},
      {"sequence": "UGGGUGUAGUGAUGUUAUAUAGAGAAUGAUACCAGCUUAGAGAGGAGCCCUUGGCAGCGUAGACGAGUAUCAUUGGAGGAGGAGG [#22 K4 Theophylline A Exclusion]", "apparent KD of K4 kissing-loop reporter": 724},
      {"sequence": "AAUACUAUCAGAAGGAGCGUGGAAUAUUCAUCUGUAUCUAAUACGAGUGAUGUUCGUAAUUCACAGGUAGGUCGCUGAUUAAUAC [whbob_Ex_Arginine_B_2th158]", "apparent KD of K4 kissing-loop reporter": 304},
      {"sequence": "CUAUAUAGUGAUGUUAUAUAGAUAACAGAUACCAGCUAGAAAACUAGCCCUUGGCAGCUGAUAAGGGAAAGUAUAAUUGUGUAAA [AstroSTH-A#DifdesignED20.18]", "apparent KD of K4 kissing-loop reporter": 64.8},
      {"sequence": "UAUAGCGUCAGAAGGAGCGUGAGUAUAACAUGGCUGGAGUGAUGUUCCAGGAGUUAAUACUCACAGGUAGGUCGCUGACUCCUGG [Arg B SS t2]", "apparent KD of K4 kissing-loop reporter": 150}
    ]},
    {"tested_on": "K4 kissing-loop RNA reporter", "assay": "apparent KD of K4 kissing-loop reporter; higher = weaker reporter binding", "settings": "Eterna round: R107; input ligand: tryptophan 2.4 mM", "procedure": "as §1", "units": {"apparent KD of K4 kissing-loop reporter": "nM"}, "values": [
      {"sequence": "AAAAUAAUCCAGUGAUGUUGGUAUCCAGAUACCAGCCAGGAAACUGGCCCUUGGCAGCUGGCGACGUACAAAAUAAGUACGUCGU [#OpenEnded 11 #StaticStem #K4Early]", "apparent KD of K4 kissing-loop reporter": 374},
      {"sequence": "AAUCGAGUGAUGUUCGAUGUAGUGCAUUCAGAGGAUAUAGGAUGGGCUAGAAGGCUGAAAAGUGCUUCGAGUGAUGUUCGAAGAU [Exclusion FMN A GF 4]", "apparent KD of K4 kissing-loop reporter": 56},
      {"sequence": "AAUAUAAAGUCGGCCGCCACUGGAUUUAUAUUUGUUAAAUCUGGAUCAAAGUGAUGUUUUGAGUCCAGGACCGGGACAAUUGUUA [JR_ExcTryptoB_Sub001]", "apparent KD of K4 kissing-loop reporter": 203},
      {"sequence": "UGAUAAAGCAGUGAUGUUGCAAGUAAUGAUACCAGUUAAGAAGAGAACCCUUGGCAGCAUAAAGUGCGCUCUAAUGAGUGUGCUU [whbob_SS_Theo_A_w51]", "apparent KD of K4 kissing-loop reporter": 91.3},
      {"sequence": "GUUACGCAUGGAAGGAGCGCAGGCUCAACAAAUAGCUCAGUGAUGUUGAGCAUAUUAAAUCUGCAGGUAGGUCGCCAUGUGUAAC [Ex Arginine B K4 24]", "apparent KD of K4 kissing-loop reporter": 581},
      {"sequence": "GGUGACAGCCAGGAGUGAUGUAUAGAAUAGCGAGGACCGGUACGGCCGCCACUCGUGAAGAGAAAGGAGUGAUGUUCCGUAAUGG [Kazoo C2]", "apparent KD of K4 kissing-loop reporter": 57},
      {"sequence": "UGACAUUGCUCAGAUACCAGACUUGAGGAACACCCAAGUGCCAAAUAAACGUACAUAAAAGUCCCUUGGCAGCUGAGCAAUGUCU [TheoBX 11]", "apparent KD of K4 kissing-loop reporter": 45.3},
      {"sequence": "GCGGGCCCUGGAGGAUAUGAGUCGAGUGAUGUUCGGCGGUCCAUGCCGAUGCGGCGUUAUGCCCUUUUAGAAGGCCAGGGUCCGC [#2 Exclusion - FMN B Attempt #8 (HarryS)]", "apparent KD of K4 kissing-loop reporter": 289},
      {"sequence": "CUGCCGUUUACAGAUACCAGACUAAUAACGGCAGCACAGAAUGUGAGUGAUGUUCGCAUAGUCCCUUGGCAGCUGUAUAACAGUA [Theo B Ex t3]", "apparent KD of K4 kissing-loop reporter": 191},
      {"sequence": "GGCCAAAGAGAGUGAUGUUCUCAAUAUGAAGGAGCGCCCGAAAGGGCAGGUAGGUCGCAUAACGGCCACCUACGAAAAGUAGGAA [#SwitchBubble 4 #K4Early]", "apparent KD of K4 kissing-loop reporter": 96.5},
      {"sequence": "AAGUGUGUGGCGGCCGCCACUAGAAUCCAGUGAUGUUGGAGAUAUCAUGUAAAUGAUAUCCAACAUAGGACCGGGCCAUAUAGAA [Same State - Tryptophan B (Freestyle 10)]", "apparent KD of K4 kissing-loop reporter": 120},
      {"sequence": "CAGCAUCUGAGUGGUAGCCAUUGAGAGAUGCAGGAUAUCUGGAAACAGAGAAGGGCAGUGAGUGAUGUUCACGGCUGGCUUGGUU", "apparent KD of K4 kissing-loop reporter": 110},
      {"sequence": "UGAUAGGACAGAAGGAGCGGGAGUGAUGUUCCCAAUAAAAGGUCUAGCAAAGCUAGACCCUCCCAGGUAGGUCGCUGUCCUAUCU [ArgBX 2 #Palindromic #SwitchBubble #StaticStem]", "apparent KD of K4 kissing-loop reporter": 219},
      {"sequence": "UGGGUGUAGUGAUGUUAUAUAGAGAAUGAUACCAGCUUAGAGAGGAGCCCUUGGCAGCGUAGACGAGUAUCAUUGGAGGAGGAGG [#22 K4 Theophylline A Exclusion]", "apparent KD of K4 kissing-loop reporter": 647},
      {"sequence": "AAUACUAUCAGAAGGAGCGUGGAAUAUUCAUCUGUAUCUAAUACGAGUGAUGUUCGUAAUUCACAGGUAGGUCGCUGAUUAAUAC [whbob_Ex_Arginine_B_2th158]", "apparent KD of K4 kissing-loop reporter": 245},
      {"sequence": "CUAUAUAGUGAUGUUAUAUAGAUAACAGAUACCAGCUAGAAAACUAGCCCUUGGCAGCUGAUAAGGGAAAGUAUAAUUGUGUAAA [AstroSTH-A#DifdesignED20.18]", "apparent KD of K4 kissing-loop reporter": 73.7},
      {"sequence": "UAUAGCGUCAGAAGGAGCGUGAGUAUAACAUGGCUGGAGUGAUGUUCCAGGAGUUAAUACUCACAGGUAGGUCGCUGACUCCUGG [Arg B SS t2]", "apparent KD of K4 kissing-loop reporter": 174}
    ]}
  ]
}
